Among the targets are human importin α5 ΔIBB (human); human importin α7 ΔIBB (human); human importin α1 ΔIBB (human); mouse importin α2 ΔIBB (mouse, UniProt P52293 70-529).
Test in all cases: FP

The Kd is the free concentration of one partner at which half of the binding sites on the other are occupied at equilibrium, for simple one-to-one binding. The low end stands for higher affinity, the high end for lower affinity.

Where no end group is shown, it is not given here. The star is where a group is joined. FITC = O=C1OC2(c3ccc(O)cc3Oc3cc(O)ccc32)c2ccc(NC(=S)*)cc21; Ahx = NCCCCCC(=O)O

Chain of human importin α7 ΔIBB (human) (chain, as listed by the source mutant): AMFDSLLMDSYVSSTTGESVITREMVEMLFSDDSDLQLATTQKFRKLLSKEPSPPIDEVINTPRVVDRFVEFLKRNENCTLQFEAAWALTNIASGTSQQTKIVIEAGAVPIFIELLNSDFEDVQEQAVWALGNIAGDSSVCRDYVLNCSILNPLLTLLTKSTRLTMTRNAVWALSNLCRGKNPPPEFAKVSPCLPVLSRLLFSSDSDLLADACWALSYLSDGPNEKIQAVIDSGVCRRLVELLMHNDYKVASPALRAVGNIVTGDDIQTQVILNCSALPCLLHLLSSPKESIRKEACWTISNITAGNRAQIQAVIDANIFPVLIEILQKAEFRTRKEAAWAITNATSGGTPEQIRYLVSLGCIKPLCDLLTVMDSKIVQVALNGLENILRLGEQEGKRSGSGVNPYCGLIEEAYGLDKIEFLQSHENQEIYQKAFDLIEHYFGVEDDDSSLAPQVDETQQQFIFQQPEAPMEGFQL
Chain of human importin α5 ΔIBB (human) (chain, as listed by the source mutant): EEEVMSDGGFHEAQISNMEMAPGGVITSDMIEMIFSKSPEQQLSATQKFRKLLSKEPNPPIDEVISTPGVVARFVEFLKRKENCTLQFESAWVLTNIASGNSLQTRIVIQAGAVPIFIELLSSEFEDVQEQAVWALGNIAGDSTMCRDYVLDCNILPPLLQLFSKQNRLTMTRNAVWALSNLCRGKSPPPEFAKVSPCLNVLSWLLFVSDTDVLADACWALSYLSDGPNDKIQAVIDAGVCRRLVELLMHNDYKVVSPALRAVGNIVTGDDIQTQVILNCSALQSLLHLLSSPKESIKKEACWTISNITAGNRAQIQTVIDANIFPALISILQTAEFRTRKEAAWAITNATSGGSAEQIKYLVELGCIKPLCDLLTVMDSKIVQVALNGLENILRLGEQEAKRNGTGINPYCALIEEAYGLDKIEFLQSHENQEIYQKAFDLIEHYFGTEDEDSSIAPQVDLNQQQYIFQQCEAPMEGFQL

For {FITC-Ahx}-IAEYKRRHNIGSDGLPNKRRRCLF [BSB PyV-LTA;NLS peptide (Black Sea Bass polyomavirus large tumor antigen residues 660-683)], the Kd is 12 nM in the experiment with human importin α5 ΔIBB, 2 nM in the experiment with human importin α7 ΔIBB, 31 nM with human importin α1 ΔIBB and 4 nM in the experiment with mouse importin α2 ΔIBB.

The record behind these values is publication doi:10.1101/2025.05.20.655083 (2025).
